Measurements as given in US20210107983A1 (Boehringer Ingelheim, published 2021).

Tests used:
Cyno B7H6-His [1] = biological target: T1, Cyno B7H6-His (cynomolgus monkey); assay: ratio of SPR KDs cyno/human
T1 construct: also called CyB7H6; cyB7-H6
T1 chain: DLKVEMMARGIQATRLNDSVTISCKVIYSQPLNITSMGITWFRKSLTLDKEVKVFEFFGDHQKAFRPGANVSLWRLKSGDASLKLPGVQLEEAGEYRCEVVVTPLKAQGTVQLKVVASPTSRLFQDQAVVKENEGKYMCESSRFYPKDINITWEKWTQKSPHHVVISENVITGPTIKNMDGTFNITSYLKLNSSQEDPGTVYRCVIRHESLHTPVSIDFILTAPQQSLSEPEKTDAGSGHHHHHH

Cyno CD3 E+G HuFc-6xHis [2] = biological target: T2, Cyno CD3 E+G HuFc-6xHis (cynomolgus monkey); assay: ratio of SPR KDs cyno/human
T2 construct: also called CyCD3E+G-hFc; cyCD3

Cyno B7H6-His [3] = biological target: T1, Cyno B7H6-His; assay: SPR, binder captured on Protein A/G, B7H6 analyte
How it was run: (§1)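 B7H6/CD3 binder captured (~700 RU) on a Protein A/G CM5 surface in HBS-EP+. Human or cyno B7H6 injected at 0–100 nM and human B7H1 at 0 nM and 1 μM, 300 s association and 1200 s dissociation. Data double-referenced against the reference flow cell and blank.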

Human CD3 E+G HuFc-6xHis = biological target: T3, Human CD3 E+G HuFc-6xHis (human); assay: SPR, CD3E+G-hFc immobilized, binder analyte
T3 construct: also called HuCD3E+G-hFc; huCD3
How it was run: (§2)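 On a ProteOn XPR36, human and cyno CD3E+G-hFc were amine-coupled to a GLM chip at 0.4, 0.2 and 0.1 μg/mL in 10 mM acetate pH 4.5. B7H6/CD3 binding protein (0–100 nM) flowed in HBS-EP+ at 30 μL/min, with 300 s association and 600 s dissociation. Interspot and blank responses were subtracted.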

Cyno CD3 E+G HuFc-6xHis [4] = biological target: T2, Cyno CD3 E+G HuFc-6xHis; assay: SPR, CD3E+G-hFc immobilized, binder analyte
How it was run: as §2

[5] = biological target: T4, trypsin inhibitor from Glycine max soybean (Glycine max (soybean)); assay: SPR, 1 µM binder over immobilized trypsin inhibitor
T4 construct: unrelated negatively charged protein, amine-coupled to the chip
How it was run: (§3)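 Non-specific binding tested with samples at 1 μM in HBS-EP at 25 °C, 5 μL/min, over lysozyme or trypsin inhibitor amine-coupled to CM5 chip (3000–5000 RU). Association 10 min, dissociation 15 min.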

[6] = biological target: T5, chicken egg white lysozyme (chicken, UniProt P00698 19-147); assay: SPR, 1 µM binder over immobilized lysozyme
T5 construct: unrelated positively charged protein, amine-coupled to the chip; also called Lysozyme (positive)
How it was run: as §3

Human B7H1 = biological target: T6, Human B7H1 (human, UniProt Q9NZQ7 20-239); assay: SPR, binder captured on Protein A/G, HuB7H1 analyte
T6 construct: also called HuB7H1; huB7-H1
How it was run: as §1

[7] = biological target: T7, human B7H6 on HCT-15 cells (human, UniProt Q68D85 25-454); assay: cell-based or functional assay
T7 sequence (looked up): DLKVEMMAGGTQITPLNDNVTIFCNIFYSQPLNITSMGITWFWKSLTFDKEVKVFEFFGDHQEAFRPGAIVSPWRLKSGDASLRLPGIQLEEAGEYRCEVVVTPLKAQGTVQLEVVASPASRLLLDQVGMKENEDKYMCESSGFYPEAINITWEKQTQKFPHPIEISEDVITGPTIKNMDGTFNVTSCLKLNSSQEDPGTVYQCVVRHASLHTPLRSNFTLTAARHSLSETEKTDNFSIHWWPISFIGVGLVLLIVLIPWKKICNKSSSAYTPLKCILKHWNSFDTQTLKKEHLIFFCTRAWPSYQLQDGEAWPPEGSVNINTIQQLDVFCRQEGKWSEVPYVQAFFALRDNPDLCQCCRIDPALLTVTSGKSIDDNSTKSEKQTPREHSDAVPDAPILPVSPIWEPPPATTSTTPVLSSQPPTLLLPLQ

[8] = biological target: T8, Fc-His-tagged human B7H6 ECD (human); assay: ELISA, plate coated with Fc-His-tagged human B7H6 ECD, anti-human IgG F(ab')2-peroxidase, TMB
T8 construct: also called huB7H6-ECD-Fc-His; recombinant human B7H6 ECD
Experimental: To assess binding of B7H6/CD3 binding proteins to recombinant human Fc-His-tagged B7H6 ECD and human Fc-His-tagged Ala-mutated B7H6 extracellular proteins as described in Example 3, MediSorp™ plates (Nunc, 467320) were coated with […] recombinant proteins overnight at 4° C. The next day, plates were blocked with 0.5% bovine serum albumin (BSA) in phosphate buffered saline (PBS) for 1 hour at room temperature (RT). Subsequently plates were washed with […] containing 0.05% TWEEN®20 viscous liquid and B7H6/CD3 binding proteins were incubated at concentrations ranging from 0.00001 to 10 μg/ml. After an additional washing step, bound B7H6/CD3 binding proteins were detected by a peroxidase conjugated goat anti-human IgG F(ab′)₂-specific secondary antibody (Jackson Immunoresearch) and visualized by TMB substrate solution (Bender Med Systems).

T2 sequence (chain, as listed by the source limits assumed): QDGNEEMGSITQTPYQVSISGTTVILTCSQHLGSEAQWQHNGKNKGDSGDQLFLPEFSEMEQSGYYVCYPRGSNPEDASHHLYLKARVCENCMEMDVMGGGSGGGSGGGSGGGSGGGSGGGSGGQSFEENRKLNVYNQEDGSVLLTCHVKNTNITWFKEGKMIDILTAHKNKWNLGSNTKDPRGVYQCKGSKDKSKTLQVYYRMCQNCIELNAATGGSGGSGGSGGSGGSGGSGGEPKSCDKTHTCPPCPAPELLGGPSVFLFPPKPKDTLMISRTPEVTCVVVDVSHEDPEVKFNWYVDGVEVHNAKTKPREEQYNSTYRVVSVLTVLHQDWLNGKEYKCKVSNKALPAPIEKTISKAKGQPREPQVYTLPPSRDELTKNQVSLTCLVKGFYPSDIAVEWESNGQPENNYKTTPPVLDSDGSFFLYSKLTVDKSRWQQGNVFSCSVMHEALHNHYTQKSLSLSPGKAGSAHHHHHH
T5 sequence (P00698 19-147): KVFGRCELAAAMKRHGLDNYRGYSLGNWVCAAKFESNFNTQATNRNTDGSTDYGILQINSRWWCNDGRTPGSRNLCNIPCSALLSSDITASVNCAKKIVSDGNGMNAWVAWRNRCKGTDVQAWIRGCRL
T6 sequence (Q9NZQ7 other isoform, or with tags, fused parts or gaps limits assumed): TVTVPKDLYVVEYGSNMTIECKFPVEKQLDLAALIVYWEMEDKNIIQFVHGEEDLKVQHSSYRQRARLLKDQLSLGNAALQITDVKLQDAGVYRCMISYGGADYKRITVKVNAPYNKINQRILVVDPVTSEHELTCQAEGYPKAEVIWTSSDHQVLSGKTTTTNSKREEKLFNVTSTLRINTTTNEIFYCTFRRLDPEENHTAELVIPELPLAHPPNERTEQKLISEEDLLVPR
T4 sequence (P01070 25-205): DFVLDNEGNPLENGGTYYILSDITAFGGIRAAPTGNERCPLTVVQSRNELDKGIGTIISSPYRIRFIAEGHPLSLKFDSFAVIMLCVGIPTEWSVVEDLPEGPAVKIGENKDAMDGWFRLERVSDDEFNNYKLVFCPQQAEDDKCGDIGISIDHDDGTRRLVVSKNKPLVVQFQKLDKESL
T3 sequence (chain, as listed by the source limits assumed): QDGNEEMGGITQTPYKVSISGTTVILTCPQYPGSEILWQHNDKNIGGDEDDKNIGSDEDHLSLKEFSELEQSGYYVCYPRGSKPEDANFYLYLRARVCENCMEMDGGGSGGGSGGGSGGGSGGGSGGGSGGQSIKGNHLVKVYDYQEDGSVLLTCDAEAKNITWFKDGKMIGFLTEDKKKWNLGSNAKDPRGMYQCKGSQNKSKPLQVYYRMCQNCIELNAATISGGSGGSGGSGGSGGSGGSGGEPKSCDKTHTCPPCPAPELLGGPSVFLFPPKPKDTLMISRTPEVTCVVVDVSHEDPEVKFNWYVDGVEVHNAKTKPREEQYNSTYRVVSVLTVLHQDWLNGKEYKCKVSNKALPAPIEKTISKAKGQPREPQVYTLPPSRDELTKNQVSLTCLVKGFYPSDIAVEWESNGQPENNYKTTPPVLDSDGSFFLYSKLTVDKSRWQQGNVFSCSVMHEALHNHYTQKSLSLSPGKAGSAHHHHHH

cy/hu B7-H6 (Cyno B7H6-His [1])	cy/hu CD3 (Cyno CD3 E+G HuFc-6xHis [2])	Kd (Cyno B7H6-His [3])	Kd (Human CD3 E+G HuFc-6xHis)	Kd (Cyno CD3 E+G HuFc-6xHis [4])	Non-specific binding (RU) [5]	Non-specific binding (RU) [6]	binding result (Human B7H1)	EC50 (read off the curve) [8]	Binder	EC50 [nM], 72 hour cytotoxicity assay, non-stimulated T-cells (Donor #1) as effector cells, HCT-15 cells as target cells [7]
2.1	1.4	0.9 nM	4.1 nM	5.7 nM	34 RU	15.7 RU	no binding (tested: 1 µM)	–	B7H6#14/CD3#6 (bispecific antibody, human IgG1, kappa, L234A L235A, scFab-Fc heterodimer) chain 1: DIQMTQSPSSLSASVGDRVTITCKASQNVGKYVAWYQQKPGKAPKSLIYSASNRYDGVPSRFSGSGSGTDFTLTISSLQPEDFATYFCQQYISYPLTFGAGTKLEIKRTVAAPSVFIFPPSDEQLKSGTASVVCLLNNFYPREAKVQWKVDNALQSGNSQESVTEQDSKDSTYSLSSTLTLSKADYEKHKVYACEVTHQGLSSPVTKSFNRGECGGGGSEGKSSGSGSESKSTEGKSSGSGSESKSTGGGGSQVQLVQSGAEVKKPGASVKVSCKASGYTFTNYWMNWMKQAPGQGLEWIGGIYLNGDSTDYNEKFKGKVTMTVDTSTSTVYMELSSLRSEDTAVYYCTRRGDYFGDFWGQGTLVTVSSASTKGPSVFPLAPSSKSTSGGTAALGCLVKDYFPEPVTVSWNSGALTSGVHTFPAVLQSSGLYSLSSVVTVPSSSLGTQTYICNVNHKPSNTKVDKRVEPKSCDKTHTCPPCPAPEAAGGPSVFLFPPKPKDTLMISRTPEVTCVVVDVSHEDPEVKFNWYVDGVEVHNAKTKPREEQYNSTYRVVSVLTVLHQDWLNGKEYKCKVSNKALPAPIEKTISKAKGQPREPQVYTLPPSREEMTKNQVSLWCLVKGFYPSDIAVEWESNGQPENNYKTTPPVLDSDGSFFLYSKLTVDKSRWQQGNVFSCSVMHEALHNHYTQKSLSLSPG chain 2: not shown	–
1.1	1	2 nM	10.4 nM	10 nM	47.8 RU	37.8 RU	no binding (tested: 1 µM)	–	B7H6#23/CD3#2 (bispecific antibody, human IgG1, kappa, L234A L235A, scFab-Fc heterodimer) chain 1: DIQMTQSPSSLSASVGDRVTITCKASQNVGKYVAWYQQKPGKAPKSLIYSASNRYDAVPSRFSGSGSGTDFTLTISSLQPEDFATYFCQQYISYPLTFGAGTKLEIKRTVAAPSVFIFPPSDEQLKSGTASVVCLLNNFYPREAKVQWKVDNALQSGNSQESVTEQDSKDSTYSLSSTLTLSKADYEKHKVYACEVTHQGLSSPVTKSFNRGECGGGGSEGKSSGSGSESKSTEGKSSGSGSESKSTGGGGSQVQLVQSGAEVKKPGASVKVSCKASGYTFTSYWMNWMKQAPGQGLEWIGGIYLSGESTDYNEKFKGKVTMTVDTSTSTVYMELSSLRSEDTAVYYCTRRGDYFGDFWGQGTLVTVSSASTKGPSVFPLAPSSKSTSGGTAALGCLVKDYFPEPVTVSWNSGALTSGVHTFPAVLQSSGLYSLSSVVTVPSSSLGTQTYICNVNHKPSNTKVDKRVEPKSCDKTHTCPPCPAPEAAGGPSVFLFPPKPKDTLMISRTPEVTCVVVDVSHEDPEVKFNWYVDGVEVHNAKTKPREEQYNSTYRVVSVLTVLHQDWLNGKEYKCKVSNKALPAPIEKTISKAKGQPREPQVYTLPPSREEMTKNQVSLWCLVKGFYPSDIAVEWESNGQPENNYKTTPPVLDSDGSFFLYSKLTVDKSRWQQGNVFSCSVMHEALHNHYTQKSLSLSPG chain 2: not shown	–
–	–	–	–	–	–	–	–	~0.05 µg/mL	B7H6#11/CD3#1 (bispecific antibody, scFab-Fc heterodimer, one B7H6 chain and one CD3 chain) chain 1: not shown chain 2: EAVVTQEPSLTVSPGGTVTLTCRSSTGAVTTSNYANWVQEKPGQLPRGLIGGTNKRAPWVPARFSGSLLGGKAALTLSGAQPEDEAEYFCALWYSNLWVFGGGTKLTVLGQPKAAPSVTLFPPSSEELQANKATLVCLISDFYPGAVKVAWKADGSPVNTGVETTTPSKQSNNKYAASSYLSLTPEQWKSHRSYSCQVTHEGSTVEKTVAPAECSGGGGSEGKSSGSGSESKSTEGKSSGSGSESKSTGGGGSEVQLVESGGGLVQPGGSLKLSCAASGFTFNTYAMNWVRQAPGKGLEWVARIRSKYNNYATYYADSVKDRFTISRDDSKNTAYLQMNNLKTEDTAVYYCVRHGNFGNSYVSWFAYWGQGTLVTVSAASTKGPSVFPLAPSSKSTSGGTAALGCLVKDYFPEPVTVSWNSGALTSGVHTFPAVLQSSGLYSLSSVVTVPSSSLGTQTYICNVNHKPSNTKVDKRVEPKSCDKTHTCPPCPAPEAAGGPSVFLFPPKPKDTLMISRTPEVTCVVVDVSHEDPEVKFNWYVDGVEVHNAKTKPREEQYNSTYRVVSVLTVLHQDWLNGKEYKCKVSNKALPAPIEKTISKAKGQPREPQVYTLPPSREEMTKNQVSLSCAVKGFYPSDIAVEWESNGQPENNYKTTPPVLDSDGSFFLVSKLTVDKSRWQQGNVFSCSVMHEALHNRFTQKSLSLSPG	0.77 nM
–	–	–	–	–	–	–	–	~0.05 µg/mL	B7H6#9/CD3#1 (bispecific antibody, human IgG1, kappa, lambda, L234A L235A, scFab-Fc heterodimer, one B7H6 chain and one CD3 chain) chain 1: DIVLTQSPVSLAVSLGQRATISCRASESVDNFGVSFMNWFQQKPGQPPKLLIYAASNQGSGVPARFSGSGSGTDFSLNIHPLEEDDTAMYFCQQSKEVPWTFGGGTRLEIKRTVAAPSVFIFPPSDEQLKSGTASVVCLLNNFYPREAKVQWKVDNALQSGNSQESVTEQDSKDSTYSLSSTLTLSKADYEKHKVYACEVTHQGLSSPVTKSFNRGECGGGGSEGKSSGSGSESKSTEGKSSGSGSESKSTGGGGSQVQLQQPGAEMVRPGSSVKLSCKASDYTFTHYWIHWVKQRPLEGLEWIGIIGPSDNEIHYNQDFKDKATLTVDKSSNTAYLHLNSLTSEDSAVYYCARQIISMVVGTEYFDVWGTGTTVTVSSASTKGPSVFPLAPSSKSTSGGTAALGCLVKDYFPEPVTVSWNSGALTSGVHTFPAVLQSSGLYSLSSVVTVPSSSLGTQTYICNVNHKPSNTKVDKRVEPKSCDKTHTCPPCPAPEAAGGPSVFLFPPKPKDTLMISRTPEVTCVVVDVSHEDPEVKFNWYVDGVEVHNAKTKPREEQYNSTYRVVSVLTVLHQDWLNGKEYKCKVSNKALPAPIEKTISKAKGQPREPQVYTLPPSREEMTKNQVSLWCLVKGFYPSDIAVEWESNGQPENNYKTTPPVLDSDGSFFLYSKLTVDKSRWQQGNVFSCSVMHEALHNHYTQKSLSLSPG chain 2: EAVVTQEPSLTVSPGGTVTLTCRSSTGAVTTSNYANWVQEKPGQLPRGLIGGTNKRAPWVPARFSGSLLGGKAALTLSGAQPEDEAEYFCALWYSNLWVFGGGTKLTVLGQPKAAPSVTLFPPSSEELQANKATLVCLISDFYPGAVKVAWKADGSPVNTGVETTTPSKQSNNKYAASSYLSLTPEQWKSHRSYSCQVTHEGSTVEKTVAPAECSGGGGSEGKSSGSGSESKSTEGKSSGSGSESKSTGGGGSEVQLVESGGGLVQPGGSLKLSCAASGFTFNTYAMNWVRQAPGKGLEWVARIRSKYNNYATYYADSVKDRFTISRDDSKNTAYLQMNNLKTEDTAVYYCVRHGNFGNSYVSWFAYWGQGTLVTVSAASTKGPSVFPLAPSSKSTSGGTAALGCLVKDYFPEPVTVSWNSGALTSGVHTFPAVLQSSGLYSLSSVVTVPSSSLGTQTYICNVNHKPSNTKVDKRVEPKSCDKTHTCPPCPAPEAAGGPSVFLFPPKPKDTLMISRTPEVTCVVVDVSHEDPEVKFNWYVDGVEVHNAKTKPREEQYNSTYRVVSVLTVLHQDWLNGKEYKCKVSNKALPAPIEKTISKAKGQPREPQVYTLPPSREEMTKNQVSLSCAVKGFYPSDIAVEWESNGQPENNYKTTPPVLDSDGSFFLVSKLTVDKSRWQQGNVFSCSVMHEALHNRFTQKSLSLSPG	0.44 nM
